From patent US20230414780A1 (VECT HORUS, published 2023)

Legend:
[1] = target: T1, murine TfR expressed by murine neuroblastoma Neuro-2a cells (mouse, UniProt Q62351 1-763); test: cell-based or functional assay
[2] = target: T1, murine TfR expressed by murine …; test: competition with C5-Alexa680 (100 nM) on living Neuro-2a cells, 3 hrs at 37 C, flow cytometry; Ki/app, mean ± SD
Procedure: The binding of VHH-Oligo and VHH-hFc-Oligo conjugates to mTfR was evaluated using a competition assay on living cells expressing the receptor of interest, namely murine neuroblastoma Neuro-2a cells (N2a). N2a cells were grown in Dulbecco's Modified Eagle Medium (DMEM) GlutaMAX supplemented with 10% v/v FBS in 5% CO₂ at 37° C. Cells were seeded two days before experiments in 96-well plates at a density of 50.000 cells/well. […] Resuspended cells were transferred in a 96-deepwell plate (V-bottom) containing 1% fetal bovine serum (FBS)/0.02% sodium azide in phosphate-buffered saline (PBS) and then centrifuged for 5 min at 2000 rpm at 4° C. After removing the supernatant, 5 mM EDTA in D-PBS and 4% paraformaldehyde (PFA) (v/v 1:1) were added into wells to fix cells for 15 min at room temperature. PFA was removed by centrifugation (5 min, 3000 rpm, 4° C.) and cells were resuspended with 5 mM EDTA in D-PBS. Then the cellular A680-associated fluorescence signal was quantified using an Attune™ NxT flow cytometer (Thermo Fisher Scientific) equipped with Attune™ NxT v3.1.2. Experimental data (experimental triplicates) were fitted with GraphPad Prism® software using a nonlinear fit to determine the apparent Ki inhibition constants.

[3] = target: T2, human transferrin receptor (hTfR) fused to EGFP, on CHO cells (human, UniProt P02786 1-760); test: flow cytometry on CHO-hTfR-EGFP cells, 1 hr at 4 C, anti-6His + Alexa647 anti-mouse; nonlinear fit
T2 construct: whole, on cells; also called human TfR; CHO-hTfR-EGFP; not shown: EGFP from pEGFP-C1 vector, fused to the N-terminal (intracellular) end of hTfR
T2 sequence (P02786 whole entry, the tested form may be a part): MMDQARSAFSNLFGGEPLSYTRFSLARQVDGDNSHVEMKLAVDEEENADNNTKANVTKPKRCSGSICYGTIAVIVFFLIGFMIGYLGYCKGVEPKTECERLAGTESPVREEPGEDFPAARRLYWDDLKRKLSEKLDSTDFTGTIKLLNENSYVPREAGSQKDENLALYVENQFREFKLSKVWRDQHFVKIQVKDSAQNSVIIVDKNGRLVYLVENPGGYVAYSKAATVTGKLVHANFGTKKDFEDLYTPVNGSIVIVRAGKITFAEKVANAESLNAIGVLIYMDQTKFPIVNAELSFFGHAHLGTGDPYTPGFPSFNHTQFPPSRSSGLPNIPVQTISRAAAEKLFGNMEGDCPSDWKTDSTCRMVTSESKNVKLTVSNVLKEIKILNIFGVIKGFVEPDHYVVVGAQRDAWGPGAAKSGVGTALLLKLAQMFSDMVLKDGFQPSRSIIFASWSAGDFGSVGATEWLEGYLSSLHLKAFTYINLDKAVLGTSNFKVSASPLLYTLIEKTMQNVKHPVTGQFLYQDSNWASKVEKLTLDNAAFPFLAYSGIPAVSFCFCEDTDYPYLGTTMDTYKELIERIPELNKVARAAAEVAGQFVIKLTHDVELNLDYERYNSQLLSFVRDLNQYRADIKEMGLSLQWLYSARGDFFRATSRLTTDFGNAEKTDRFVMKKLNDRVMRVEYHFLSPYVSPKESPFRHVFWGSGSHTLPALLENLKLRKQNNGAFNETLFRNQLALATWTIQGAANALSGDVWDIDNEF
Procedure: CHO-hTfR-EGFP cells were incubated 1 hr at 4° C. with various concentrations of the indicated compounds. Detection of VHHs was performed using a primary mouse anti-6His (1/1000) and an Alexa647-conjugated anti-mouse secondary antibody (1/400). Measurements of cell-surface signal associated with VHH were performed using flow cytometry. The results are expressed as the ratio of Alexa647-associated fluorescence intensity of test compounds to that of background fluorescence.

[4] = target: T2, human transferrin receptor (hTfR) fused …; test: apparent Kd, flow cytometry, CHO cells
Procedure: All experiments were performed in 96 well plates using 2×10⁵ cells/well, at 4° C. with shaking. CHO cell lines stably expressing the hTfR or the mTfR fused to EGFP or CHO WT cells were saturated with PBS/BSA 2% solution during 30 min to avoid non-specific binding, followed by incubation with purified VHHs at concentrations ranging from 50 μM to 5 μM for 1 hr. After one wash in PBS/BSA 2%, cells were incubated for 1 hr with an anti-6His tag antibody (mouse), washed twice with PBS/BSA 2%, and incubated for 45 min with an Alexa647-conjugated anti-mouse secondary antibody. After two last washes in PBS/BSA 2%, cells were fixed by incubation for 15 min with PBS/PFA 2%, washed once with PBS and finally resuspended in PBS and stored at 4° C. Fluorescence levels were assessed using an Attune NxT Flow Cytometer (Thermo Fisher Scientific). […] No labeling of the CHO WT control cells was detected with all the tested VHHs (not shown). The VHH K_{d app} were calculated using GraphPad Prism software (FIG. 11-B; 12-B).

[5] = target: T2, human transferrin receptor (hTfR) fused …; test: flow cytometry on CHO-hTfR-EGFP cells, 1 hr at 4 C, anti-6His + Alexa647 anti-mouse; apparent Kd, mean ± SEM of 3 experiments
Procedure: (§1) (A) CHO-hTfR-EGFP and CHO-mTfR-EGFP cells were incubated 1 hr at 4° C. with various concentrations of VHHs, detected with a mouse anti-6His (1/1000) and an Alexa647-conjugated anti-mouse secondary antibody (1/400). Measurements were performed using flow cytometry. The ratio of fluorescence intensity for each point was normalized with the corresponding EGFP signal (receptor expression) and gave rise to the arbitrary unit. Data are presented as mean±SEM of 3 independent experiments. (B) Characteristics of VHHs: Molecular Weight (Da); Theoretical pI; Apparent Kd on human TfR (nM); Apparent Kd on mouse TfR (nM). Data are presented as mean±SEM of 3 independent experiments. NB: no binding, LB: low binding.
(§2) All experiments were performed in 96 well plates using 2×10⁵ cells/well, at 4° C. with shaking. CHO cell lines stably expressing the hTfR or the mTfR fused to EGFP or CHO WT cells were saturated with PBS/BSA 2% solution during 30 min to avoid non-specific binding, followed by incubation with purified VHHs at concentrations ranging from 50 μM to 5 μM for 1 hr. After one wash in PBS/BSA 2%, cells were incubated for 1 hr with an anti-6His tag antibody (mouse), washed twice with PBS/BSA 2%, and incubated for 45 min with an Alexa647-conjugated anti-mouse secondary antibody. […] Fluorescence levels were assessed using an Attune NxT Flow Cytometer (Thermo Fisher Scientific).

[6] = target: T3, mouse transferrin receptor (mTfR) fused to EGFP, on CHO cells (mouse, UniProt Q62351 1-763); test: flow cytometry on CHO-mTfR-EGFP cells, 1 hr at 4 C, anti-6His + Alexa647 anti-mouse; apparent Kd, mean ± SEM of 3 experiments
T3 construct: whole, on cells; also called mouse TfR; CHO-mTfR-EGFP; not shown: EGFP
T3 sequence (Q62351 whole entry, the tested form may be a part): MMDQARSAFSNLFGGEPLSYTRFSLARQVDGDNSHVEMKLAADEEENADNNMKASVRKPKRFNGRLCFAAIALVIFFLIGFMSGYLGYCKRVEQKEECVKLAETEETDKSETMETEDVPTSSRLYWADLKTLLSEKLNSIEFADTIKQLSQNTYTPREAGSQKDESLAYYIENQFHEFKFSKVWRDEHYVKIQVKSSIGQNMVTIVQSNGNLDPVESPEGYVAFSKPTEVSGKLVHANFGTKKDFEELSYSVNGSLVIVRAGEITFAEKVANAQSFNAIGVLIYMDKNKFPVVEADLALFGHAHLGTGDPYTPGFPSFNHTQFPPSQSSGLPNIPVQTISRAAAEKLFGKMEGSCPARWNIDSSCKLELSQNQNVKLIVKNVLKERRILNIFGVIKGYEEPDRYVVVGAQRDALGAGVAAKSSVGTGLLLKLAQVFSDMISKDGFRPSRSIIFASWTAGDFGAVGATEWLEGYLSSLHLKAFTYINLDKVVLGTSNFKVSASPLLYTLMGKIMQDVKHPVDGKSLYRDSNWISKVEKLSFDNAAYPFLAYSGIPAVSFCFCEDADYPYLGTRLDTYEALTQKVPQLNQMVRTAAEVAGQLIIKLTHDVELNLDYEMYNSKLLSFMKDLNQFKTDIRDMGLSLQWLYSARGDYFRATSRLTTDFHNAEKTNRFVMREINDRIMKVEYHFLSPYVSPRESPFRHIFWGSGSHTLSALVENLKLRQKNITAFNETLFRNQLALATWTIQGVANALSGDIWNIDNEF
Procedure: as §1, §2

[7] = target: T3, mouse transferrin receptor (mTfR) fused …; test: flow cytometry, CHO cells
[8] = target: T3, mouse transferrin receptor (mTfR) fused …; test: flow cytometry on CHO-mTfR-EGFP cells, 1 hr at 4 C, Alexa647 anti-mouse; apparent Kd, mean ± SEM of 3 experiments
Procedure: as §1, with “FIGS. 13A-13B: Apparent Kd determination of 13C3-HC-VHH fusions on hTfR- and mTfR-expressing CHO cell lines. (A)” for “(A)”, “13C3 fusions and” for “VHHs,”, “with” for “with a mouse anti-6His (1/1000) and”, “anti-mouse” for “anti-mouse secondary”, “13C3 fusions:” for “VHHs:”, “(Da);” for “(Da); Theoretical pI;”
All experiments were performed in 96 well plates using 2×10⁵ cells/well, at 4° C. with shaking. CHO cell lines stably expressing the hTfR or the mTfR fused to EGFP or CHO WT cells were saturated with PBS/BSA 2% solution during 30 min to avoid non-specific binding, followed by incubation with purified VHHs at concentrations ranging from 50 μM to 5 μM for 1 hr. After one wash in PBS/BSA 2%, cells were incubated for 1 hr with an anti-6His tag antibody (mouse), washed twice with PBS/BSA 2%, and incubated for 45 min with an Alexa647-conjugated anti-mouse secondary antibody. After two last washes in PBS/BSA 2%, cells were fixed by incubation for 15 min with PBS/PFA 2%, washed once with PBS and finally resuspended in PBS and stored at 4° C. Fluorescence levels were assessed using an Attune NxT Flow Cytometer (Thermo Fisher Scientific).

[9] = target: T3, mouse transferrin receptor (mTfR) fused …; test: cell-based flow cytometry assay on mTfR-expressing cells (as in Example XI)
[10] = target: T3, mouse transferrin receptor (mTfR) fused …; test: cell-based flow cytometry assay on mTfR-expressing cells (as in Example XI); Kd/app
[11] = target: T3, mouse transferrin receptor (mTfR) fused …; test: apparent Kd, cell-based assay

T1 sequence (Q62351 whole entry): as the sequence (Q62351 whole entry, the tested form may be a part) above

B1: C5-siSOD1m-5'VP (VHH, not shown: small tags and cut ends)
VHH: EVQLVESGGGVVQPGGSLKLSCVASGTDFSINFIRWYRQAPGKQREFVAGFTATGNTNYADSMKGRFTISRDNTKNAVYLQIDSLKPEDTAVYYCYMLDKWGQGTQVTVSS
modifications: siSOD1m-5'VP siRNA duplex linked by a stable linker (azide/alkyne click) to the VHH
notes: also called VHH-siSOD1m-5'VP wherein VHH is C5
B1 was tested, and the “IC50 of mSOD1 mRNA downregulation, free uptake on Neuro-2a cells” value [1] was 7.4 nM and the Ki [2] was 164 nM.

B2: VHH A-NODAGA bioconjugate (VHH, not shown: small tags and cut ends)
VHH: EVQLVESGGGVVQPGGSLKLSCVASGTDFSINFIRWYRQAPGKQREFVAGFTATGNTNYADSMKGRFTISRDNTKNAVYLQIDSLKPEDTAVYYCYMLDKWGQGTQVTVSS
modifications: NODAGA-BCN clicked to an azido linker on the Gln of the C-terminal Q-tag
Binder B2 has a Kd [3] of 7.72 nM.

B3: VHH A6 (C5^V6) (VHH)
VHH: EVQLVESGGGVVQPGGSLKLSCVASGTDFSINFIRWYRQAPGKQREFVAGFTATGNTNYADSMKGRFTISRDNTKNAVYLQIDSLKPEDTAVYYCYALDKWGQGTQVTVSS
With B3 the Kd [4] was 3 to 4 nM, the Kd [5] was 3.4 nM and the Kd [6] was 182 nM.

B4: 13C3-HC-VHH A1 (antibody)
heavy: QVQLQQSGPELVRPGVSVKISCKGSGYTFTDYAMHWVKQSHAKSLEWIGVISTKYGKTNYNQKFKGKATMTVDKSSSTAYMELARLTSEDSAIYYCARGDDGYSWGQGTSVTVSSAKTTPPSVYPLAPGSAAQTNSMVTLGCLVKGYFPEPVTVTWNSGSLSSGVHTFPAVLQSDLYTLSSSVTVPSSTWPSETVTCNVAHPASSTKVDKKIVPRDCGCKPCICTVPEVSSVFIFPPKPKDVLTITLTPKVTCVVVDISKDDPEVQFSWFVDDVEVHTAQTQPREEQFNSTFRSVSELPIMHQDWLNGKEFKCRVNSAAFPAPIEKTISKTKGRPKAPQVYTIPPPKEQMAKDKVSLTCMITDFFPEDITVEWQWNGQPAENYKNTQPIMDTDGSYFVYSKLNVQKSNWEAGNTFTCSVLHEGLHNHHTEKSLSHSPGGGGGMAEVQLVESGGGVVQPGGSLKLSCVASGADFSINFIRWYRQAPGKQREFVAGFTATGNTNYADSMKGRFTISRDNTKNAVYLQIDSLKPEDTAVYYCYMLDKWGQGTQVTVSSAAA
light: DVVMTQTPLSLPVSLGDQASISCRSGQSLVHSNGNTYLHWYLQKPGQSPKLLIYTVSNRFSGVPDRFSGSGSGSDFTLKISRVEAEDLGVYFCSQNTFVPWTFGGGTKLEIKRADAAPTVSIFPPSSEQLTSGGASVVCFLNNFYPKDINVKWKIDGSERQNGVLNSWTDQDSKDSTYSMSSTLTLTKDEYERHNSYTCEATHKTSTSPIVKSFNRNEC
With B4 the “Bmax, fold lower than 13C3-HC-VHH A” value [7] was 2 fold and the Kd [8] was 9.4 nM.

B5: 13C3-HC-C5h16 (antibody)
heavy: QVQLQQSGPELVRPGVSVKISCKGSGYTFTDYAMHWVKQSHAKSLEWIGVISTKYGKTNYNQKFKGKATMTVDKSSSTAYMELARLTSEDSAIYYCARGDDGYSWGQGTSVTVSSAKTTPPSVYPLAPGSAAQTNSMVTLGCLVKGYFPEPVTVTWNSGSLSSGVHTFPAVLQSDLYTLSSSVTVPSSTWPSETVTCNVAHPASSTKVDKKIVPRDCGCKPCICTVPEVSSVFIFPPKPKDVLTITLTPKVTCVVVDISKDDPEVQFSWFVDDVEVHTAQTQPREEQFNSTFRSVSELPIMHQDWLNGKEFKCRVNSAAFPAPIEKTISKTKGRPKAPQVYTIPPPKEQMAKDKVSLTCMITDFFPEDITVEWQWNGQPAENYKNTQPIMDTDGSYFVYSKLNVQKSNWEAGNTFTCSVLHEGLHNHHTEKSLSHSPGGGGGMAEVQLVESGGGLVQPGGSLRLSCAASGTDFSINFIRWYRQAPGKGLEFVAGFTATGNTNYADSVKGRFTISRDNSKNTLYLQMNSLRAEDTAVYYCYMLDKWGQGTLVTVSSAAA
light: DVVMTQTPLSLPVSLGDQASISCRSGQSLVHSNGNTYLHWYLQKPGQSPKLLIYTVSNRFSGVPDRFSGSGSGSDFTLKISRVEAEDLGVYFCSQNTFVPWTFGGGTKLEIKRADAAPTVSIFPPSSEQLTSGGASVVCFLNNFYPKDINVKWKIDGSERQNGVLNSWTDQDSKDSTYSMSSTLTLTKDEYERHNSYTCEATHKTSTSPIVKSFNRNEC
B5 was tested, and the “binding potential, fold lower than 13C3-HC-C5h20” value [7] was roughly 3 fold, the Bmax [9] was 381 RFI and the Kd [10] was 19.6 nM.

B6: B8 h1-NT(8-13) (VHH)
VHH: EVQLVESGGGVVQPGGSLRLSCAASGEIFSINFMRWYRQAPGKGLEWVAGFTRDGSTNYPDSVKGRFTISRDNAKNTVYLQMNSLRPEDTAVYYCYMLDTWGQGTQVTVSS
Binder B6 has a Kd [11] of 2.8 nM.

B7: B8V1-NT(8-13) (VHH)
VHH: EVQLVESGGGVVQPGGSLRLSCAADGEIFSINFMRWYRQAPGKQREWVAGFTRDGSTNYPDSAKGRFTISRDNAKNTVYLQIDSLKPEDTAVYYCYMLDTWGQGTQVTVSS
B7 showed a Kd [11] of 8.3 nM.
